Measurements from patent US20130317087A1 (UNIVERSITY OF ROCHESTER, published 2013).
One block for each binder: values may come before it.

Legend:
cellular hUPF1 [1] = biological target: T1, cellular hUPF1 (human, UniProt Q92900-2 1-1118, limits assumed); experiment: co-immunoprecipitation with anti-GFP from HEK293T lysates in the presence of RNase A; western blot alpha-UPF1
T1 construct: Endogenous protein detected by western blotting
T1 sequence (looked up): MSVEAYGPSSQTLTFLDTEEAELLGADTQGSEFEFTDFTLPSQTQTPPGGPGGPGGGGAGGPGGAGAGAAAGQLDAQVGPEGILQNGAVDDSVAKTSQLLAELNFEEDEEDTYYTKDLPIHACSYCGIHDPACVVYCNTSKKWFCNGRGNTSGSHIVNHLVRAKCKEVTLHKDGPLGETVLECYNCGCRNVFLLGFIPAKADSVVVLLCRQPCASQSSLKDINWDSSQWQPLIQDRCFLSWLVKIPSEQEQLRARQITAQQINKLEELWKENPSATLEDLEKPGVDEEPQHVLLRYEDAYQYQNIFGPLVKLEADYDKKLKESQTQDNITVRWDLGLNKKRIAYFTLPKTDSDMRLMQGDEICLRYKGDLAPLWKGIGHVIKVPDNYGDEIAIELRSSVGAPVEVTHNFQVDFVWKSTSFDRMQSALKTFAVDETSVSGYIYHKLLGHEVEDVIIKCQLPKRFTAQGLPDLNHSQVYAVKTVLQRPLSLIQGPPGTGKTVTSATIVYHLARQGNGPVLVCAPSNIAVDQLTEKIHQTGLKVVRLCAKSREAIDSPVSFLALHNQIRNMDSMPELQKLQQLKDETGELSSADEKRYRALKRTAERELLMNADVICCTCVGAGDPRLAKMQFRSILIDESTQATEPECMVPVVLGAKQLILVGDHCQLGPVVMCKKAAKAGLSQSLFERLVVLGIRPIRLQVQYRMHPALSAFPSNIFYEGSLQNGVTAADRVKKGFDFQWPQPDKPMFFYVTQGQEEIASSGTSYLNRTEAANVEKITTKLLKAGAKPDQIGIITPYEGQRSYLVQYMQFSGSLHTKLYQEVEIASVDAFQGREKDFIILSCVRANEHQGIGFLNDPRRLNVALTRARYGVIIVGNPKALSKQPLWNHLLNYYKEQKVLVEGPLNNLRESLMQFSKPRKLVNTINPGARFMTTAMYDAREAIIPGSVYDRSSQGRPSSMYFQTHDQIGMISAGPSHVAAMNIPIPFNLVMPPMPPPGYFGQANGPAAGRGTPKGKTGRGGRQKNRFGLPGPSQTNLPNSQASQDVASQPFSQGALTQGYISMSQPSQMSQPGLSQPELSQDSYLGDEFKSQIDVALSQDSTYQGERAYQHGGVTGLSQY

mRFP-SSM-‘RBD’5 = biological target: T2, mRFP-SSM-‘RBD’5 (human, UniProt D2GVP7 455-564 (Ailuropoda melanoleuca entry), N-terminal mRFP fusion is not carried in the letters.); experiment: anti-GFP co-IP from HEK293T lysates with RNase A, western blotting
T2 construct: Expressed in HEK293T cells; also called monomeric red fluorescence protein-SSM-‘RBD’5; product of pmRFP-hSTAU1-SSM-‘RBD’5; not shown: N-terminal mRFP (monomeric DsRed from a pDsRed-Express-C1 derivative) and the vector-encoded linker
T2 sequence: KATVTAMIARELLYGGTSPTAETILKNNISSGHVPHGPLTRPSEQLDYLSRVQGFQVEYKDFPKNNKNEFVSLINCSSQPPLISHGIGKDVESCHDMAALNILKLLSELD

calnexin = biological target: T3, calnexin (UniProt P27824 21-592); experiment: co-immunoprecipitation with anti-GFP from HEK293T lysates in the presence of RNase A; western blot alpha-Calnexin (control for IP specificity)
T3 construct: Specificity control
T3 sequence (looked up): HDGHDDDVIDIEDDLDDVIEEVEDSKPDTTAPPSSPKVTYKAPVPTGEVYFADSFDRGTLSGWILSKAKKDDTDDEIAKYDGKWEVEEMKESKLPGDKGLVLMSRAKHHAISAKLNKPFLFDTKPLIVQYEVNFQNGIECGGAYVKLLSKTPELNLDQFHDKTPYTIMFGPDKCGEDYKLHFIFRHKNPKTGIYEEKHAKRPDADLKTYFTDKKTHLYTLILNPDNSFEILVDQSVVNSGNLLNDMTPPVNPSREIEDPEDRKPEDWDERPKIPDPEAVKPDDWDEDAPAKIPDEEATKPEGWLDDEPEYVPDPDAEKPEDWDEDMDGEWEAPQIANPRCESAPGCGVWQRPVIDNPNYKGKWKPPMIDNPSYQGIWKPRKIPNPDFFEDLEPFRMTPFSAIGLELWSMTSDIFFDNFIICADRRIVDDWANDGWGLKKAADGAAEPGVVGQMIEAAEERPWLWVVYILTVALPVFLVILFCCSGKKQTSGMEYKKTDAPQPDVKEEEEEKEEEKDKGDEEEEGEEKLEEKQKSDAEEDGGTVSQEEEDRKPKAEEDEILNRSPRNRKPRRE
Excerpt: Western blotting (WB) using the specified antibody, where calnexinservesto control for IP specificity. Results are representative of three independently performed experiments.
Human embryonic kidney (HEK)293T cells were transiently transfected with a mixture of two plasmids: (i) pEGFP-‘RBD’5, which produces monomeric enhanced green fluorescence protein (EGFP)-‘RBD’5 and either pmRFP-SSM-‘RBD’5 or pmRFP-‘RBD’5, which produce monomeric red fluorescence protein (mRFP)—SSM-‘RBD’5 or mRFP-‘RBD’5, respectively; or (ii) pEGFP-SSM-‘RBD’5 and either pmRFP-SSM-‘RBD’5 or pmRFP-‘RBD’5 (FIG. 1D, upper). […] Cell lysates were immunoprecipitated in the presence of RNase A using anti-GFP or, to control for nonspecific immunoprecipitation (IP), mouse(m)IgG.

cellular hUPF1 [2] = biological target: T1, cellular hUPF1; experiment: anti-GFP co-IP from HEK293T lysates with RNase A, western blotting
mRFP-‘RBD’5 = biological target: T4, mRFP-‘RBD’5 (human, UniProt O95793-2 407-476); experiment: as above
T4 construct: domain: ‘RBD’5; also called monomeric red fluorescence protein-‘RBD’5; product of pmRFP-hSTAU1-‘RBD’5; not shown: N-terminal mRFP (monomeric DsRed derived from pDsRed-Express-C1) with vector linker
T4 sequence (looked up): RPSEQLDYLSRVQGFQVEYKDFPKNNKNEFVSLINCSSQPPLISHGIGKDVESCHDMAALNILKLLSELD

binding result (cellular hUPF1 [1]): no binding | binding result (mRFP-SSM-‘RBD’5): binds | binding result (calnexin): no binding
B1: EGFP-SSM-‘RBD’5 (other, human, UniProt O95793-2 367-476, looked up)
chain: T2 sequence
notes: range 367-476; Expressed in HEK293T cells; tested in lysates with RNase A; also called monomeric enhanced green fluorescence protein-SSM-‘RBD’5; product of pEGFP-hSTAU1-SSM-‘RBD’5; not shown: N-terminal monomeric EGFP from pEGFP-C3 (BD Biosciences Clontech) with vector linker

binding result (cellular hUPF1 [2]): no binding | binding result (mRFP-‘RBD’5): no binding | binding result (calnexin): no binding
B2: EGFP-‘RBD’5 (other, human, UniProt O95793-2 407-476, looked up)
chain: T4 sequence (looked up)
notes: domain: ‘RBD’5; also called monomeric enhanced green fluorescence protein-‘RBD’5; product of pEGFP-hSTAU1-‘RBD’5; not shown: N-terminal monomeric EGFP from pEGFP-C3 with vector linker
